Results on eleven molecules are retold here after patent US20240400708A1.

B1: feline IgG1a T437R (antibody, part only; not given: variable domains and light chain, not shown: another chain or arm of the molecule)
constant: ASTTAPSVFPLAPSCGTTSGATVALACLVLGYFPEPVTVSWNSGALTSGVHTFPAVLQASGLYSLSSMVTVPSSRWLSDTFTCNVAHPPSNTKVDKTVRKTDHPPGPKPCDCPKCPPPEMLGGPSIFIFPPKPKDTLSISRTPEVTCLVVDLGPDDSDVQITWFVDNTQVYTAKTSPREEQFNSTYRVVSVLPILHQDWLKGKEFKCKVNSKSLPSPIERTISKAKGQPHEPQVYVLPPAQEELSRNKVSVTCLIKSFHPPDIAVEWEITGQPEPENNYRTTPPQLDSDGTYFVYSKLSVDRSHWQRGNTYTCSVSHEALHSHHRQKSLTQSPGK
B2: feline IgG1a A378F (antibody, part only; not given: Variable domains, not shown: another chain or arm of the molecule)
constant: ASTTAPSVFPLAPSCGTTSGATVALACLVLGYFPEPVTVSWNSGALTSGVHTFPAVLQASGLYSLSSMVTVPSSRWLSDTFTCNVAHPPSNTKVDKTVRKTDHPPGPKPCDCPKCPPPEMLGGPSIFIFPPKPKDTLSISRTPEVTCLVVDLGPDDSDVQITWFVDNTQVYTAKTSPREEQFNSTYRVVSVLPILHQDWLKGKEFKCKVNSKSLPSPIERTISKAKGQPHEPQVYVLPPAQEELSRNKVSVTCLIKSFHPPDIFVEWEITGQPEPENNYRTTPPQLDSDGTYFVYSKLSVDRSHWQRGNTYTCSVSHEALHSHHTQKSLTQSPGK
B3: feline IgG1a A378H (antibody, part only; not given: Variable domains, not shown: another chain or arm of the molecule)
constant: ASTTAPSVFPLAPSCGTTSGATVALACLVLGYFPEPVTVSWNSGALTSGVHTFPAVLQASGLYSLSSMVTVPSSRWLSDTFTCNVAHPPSNTKVDKTVRKTDHPPGPKPCDCPKCPPPEMLGGPSIFIFPPKPKDTLSISRTPEVTCLVVDLGPDDSDVQITWFVDNTQVYTAKTSPREEQFNSTYRVVSVLPILHQDWLKGKEFKCKVNSKSLPSPIERTISKAKGQPHEPQVYVLPPAQEELSRNKVSVTCLIKSFHPPDIHVEWEITGQPEPENNYRTTPPQLDSDGTYFVYSKLSVDRSHWQRGNTYTCSVSHEALHSHHTQKSLTQSPGK
B4: feline IgG1a A378C (antibody, part only; not given: Variable domains, not shown: another chain or arm of the molecule)
constant: ASTTAPSVFPLAPSCGTTSGATVALACLVLGYFPEPVTVSWNSGALTSGVHTFPAVLQASGLYSLSSMVTVPSSRWLSDTFTCNVAHPPSNTKVDKTVRKTDHPPGPKPCDCPKCPPPEMLGGPSIFIFPPKPKDTLSISRTPEVTCLVVDLGPDDSDVQITWFVDNTQVYTAKTSPREEQFNSTYRVVSVLPILHQDWLKGKEFKCKVNSKSLPSPIERTISKAKGQPHEPQVYVLPPAQEELSRNKVSVTCLIKSFHPPDICVEWEITGQPEPENNYRTTPPQLDSDGTYFVYSKLSVDRSHWQRGNTYTCSVSHEALHSHHTQKSLTQSPGK
B5: feline IgG1a A378G (antibody, part only; not given: Variable domains, not shown: another chain or arm of the molecule)
constant: ASTTAPSVFPLAPSCGTTSGATVALACLVLGYFPEPVTVSWNSGALTSGVHTFPAVLQASGLYSLSSMVTVPSSRWLSDTFTCNVAHPPSNTKVDKTVRKTDHPPGPKPCDCPKCPPPEMLGGPSIFIFPPKPKDTLSISRTPEVTCLVVDLGPDDSDVQITWFVDNTQVYTAKTSPREEQFNSTYRVVSVLPILHQDWLKGKEFKCKVNSKSLPSPIERTISKAKGQPHEPQVYVLPPAQEELSRNKVSVTCLIKSFHPPDIGVEWEITGQPEPENNYRTTPPQLDSDGTYFVYSKLSVDRSHWQRGNTYTCSVSHEALHSHHTQKSLTQSPGK
B6: feline IgG1a A378I (antibody, part only; not given: Variable domains, not shown: another chain or arm of the molecule)
constant: ASTTAPSVFPLAPSCGTTSGATVALACLVLGYFPEPVTVSWNSGALTSGVHTFPAVLQASGLYSLSSMVTVPSSRWLSDTFTCNVAHPPSNTKVDKTVRKTDHPPGPKPCDCPKCPPPEMLGGPSIFIFPPKPKDTLSISRTPEVTCLVVDLGPDDSDVQITWFVDNTQVYTAKTSPREEQFNSTYRVVSVLPILHQDWLKGKEFKCKVNSKSLPSPIERTISKAKGQPHEPQVYVLPPAQEELSRNKVSVTCLIKSFHPPDIIVEWEITGQPEPENNYRTTPPQLDSDGTYFVYSKLSVDRSHWQRGNTYTCSVSHEALHSHHTQKSLTQSPGK
B7: feline IgG1a A378E (antibody, part only; not given: Variable domains, not shown: another chain or arm of the molecule)
constant: ASTTAPSVFPLAPSCGTTSGATVALACLVLGYFPEPVTVSWNSGALTSGVHTFPAVLQASGLYSLSSMVTVPSSRWLSDTFTCNVAHPPSNTKVDKTVRKTDHPPGPKPCDCPKCPPPEMLGGPSIFIFPPKPKDTLSISRTPEVTCLVVDLGPDDSDVQITWFVDNTQVYTAKTSPREEQFNSTYRVVSVLPILHQDWLKGKEFKCKVNSKSLPSPIERTISKAKGQPHEPQVYVLPPAQEELSRNKVSVTCLIKSFHPPDIEVEWEITGQPEPENNYRTTPPQLDSDGTYFVYSKLSVDRSHWQRGNTYTCSVSHEALHSHHTQKSLTQSPGK
B8: feline IgG1a A378K (antibody, part only; not given: Variable domains, not shown: another chain or arm of the molecule)
constant: ASTTAPSVFPLAPSCGTTSGATVALACLVLGYFPEPVTVSWNSGALTSGVHTFPAVLQASGLYSLSSMVTVPSSRWLSDTFTCNVAHPPSNTKVDKTVRKTDHPPGPKPCDCPKCPPPEMLGGPSIFIFPPKPKDTLSISRTPEVTCLVVDLGPDDSDVQITWFVDNTQVYTAKTSPREEQFNSTYRVVSVLPILHQDWLKGKEFKCKVNSKSLPSPIERTISKAKGQPHEPQVYVLPPAQEELSRNKVSVTCLIKSFHPPDIKVEWEITGQPEPENNYRTTPPQLDSDGTYFVYSKLSVDRSHWQRGNTYTCSVSHEALHSHHTQKSLTQSPGK
B9: feline IgG1a A378L (antibody, part only; not given: Variable domains, not shown: another chain or arm of the molecule)
constant: ASTTAPSVFPLAPSCGTTSGATVALACLVLGYFPEPVTVSWNSGALTSGVHTFPAVLQASGLYSLSSMVTVPSSRWLSDTFTCNVAHPPSNTKVDKTVRKTDHPPGPKPCDCPKCPPPEMLGGPSIFIFPPKPKDTLSISRTPEVTCLVVDLGPDDSDVQITWFVDNTQVYTAKTSPREEQFNSTYRVVSVLPILHQDWLKGKEFKCKVNSKSLPSPIERTISKAKGQPHEPQVYVLPPAQEELSRNKVSVTCLIKSFHPPDILVEWEITGQPEPENNYRTTPPQLDSDGTYFVYSKLSVDRSHWQRGNTYTCSVSHEALHSHHTQKSLTQSPGK
B10: feline IgG1a A378D (antibody, part only; not given: Variable domains, not shown: another chain or arm of the molecule)
constant: ASTTAPSVFPLAPSCGTTSGATVALACLVLGYFPEPVTVSWNSGALTSGVHTFPAVLQASGLYSLSSMVTVPSSRWLSDTFTCNVAHPPSNTKVDKTVRKTDHPPGPKPCDCPKCPPPEMLGGPSIFIFPPKPKDTLSISRTPEVTCLVVDLGPDDSDVQITWFVDNTQVYTAKTSPREEQFNSTYRVVSVLPILHQDWLKGKEFKCKVNSKSLPSPIERTISKAKGQPHEPQVYVLPPAQEELSRNKVSVTCLIKSFHPPDIDVEWEITGQPEPENNYRTTPPQLDSDGTYFVYSKLSVDRSHWQRGNTYTCSVSHEALHSHHTQKSLTQSPGK
B11: feline IgG1a Y285A (antibody, part only; not given: Variable domains, not shown: another chain or arm of the molecule)
constant: ASTTAPSVFPLAPSCGTTSGATVALACLVLGYFPEPVTVSWNSGALTSGVHTFPAVLQASGLYSLSSMVTVPSSRWLSDTFTCNVAHPPSNTKVDKTVRKTDHPPGPKPCDCPKCPPPEMLGGPSIFIFPPKPKDTLSISRTPEVTCLVVDLGPDDSDVQITWFVDNTQVATAKTSPREEQFNSTYRVVSVLPILHQDWLKGKEFKCKVNSKSLPSPIERTISKAKGQPHEPQVYVLPPAQEELSRNKVSVTCLIKSFHPPDIAVEWEITGQPEPENNYRTTPPQLDSDGTYFVYSKLSVDRSHWQRGNTYTCSVSHEALHSHHTQKSLTQSPGK

The target of this assay is feline FcRn complex (FcRn-α subunit and β-microglobulin), biotin labeled (feline). As to the kind of experiment: SPR, pH 6. For orientation: In SPR one partner is held on a chip, and binding of the other changes the refractive index at the surface.
For orientation: Kd means a measure of binding affinity in units of concentration. Read a low Kd as a tighter complex. B1 yielded a Kd of 6.85 nM.

B2 showed a Kd of 74.8 nM.

On to B3, for which the equilibrium dissociation constant (Kd) came to 49.3 nM. B4 came in with a Kd of 77.3 nM. As to B5, the Kd amounted to 88.3 nM. Molecule B6 yielded a Kd of 58.3 nM. Regarding B7, the Kd turned out to be 63.6 nM. B8: the Kd was 104 nM. In the case of B9 it was 34.7 nM; in that of B10, 100 nM. For B11 the value was 8.01 nM.
